In US6942981:
Ends that are not written are not given here. * marks the point of attachment. Biotin = O=C1N[C@H]2[C@H](CS[C@H]2CCCCC(=O)*)N1

Key:
[1] = target: T1, GST-NeDLG PDZ domains 1-2 fusion protein (Mus musculus (Mouse), UniProt P70175 147-332); test: G assay
T1 construct: also called NeDLG1; not shown: glutathione S-transferase (GST) encoded by pGEX-3X
T1 chain: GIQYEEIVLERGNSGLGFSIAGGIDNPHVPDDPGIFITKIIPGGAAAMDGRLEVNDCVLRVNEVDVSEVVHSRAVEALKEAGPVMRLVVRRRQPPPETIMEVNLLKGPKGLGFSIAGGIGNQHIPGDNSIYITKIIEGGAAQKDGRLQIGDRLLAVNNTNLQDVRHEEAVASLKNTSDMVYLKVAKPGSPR

[2] = target: T2, GST-SYN1a (alpha1-syntrophin) PDZ domain fusion protein (Homo sapiens (Human), UniProt Q13424 84-179); test: G assay
T2 construct: also called SYN 1 α; not shown: glutathione S-transferase (GST) encoded by pGEX-3X
T2 sequence: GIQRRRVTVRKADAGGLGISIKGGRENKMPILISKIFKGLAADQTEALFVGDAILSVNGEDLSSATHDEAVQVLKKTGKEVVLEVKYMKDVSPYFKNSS

[3] = target: T3, GST-LIMK2 PDZ domain fusion protein (human, UniProt P53671 147-237); test: A/G assays
T3 construct: also called human LIM domain kinase 2; not shown: glutathione S-transferase (GST) encoded by pGEX-3X
T3 sequence: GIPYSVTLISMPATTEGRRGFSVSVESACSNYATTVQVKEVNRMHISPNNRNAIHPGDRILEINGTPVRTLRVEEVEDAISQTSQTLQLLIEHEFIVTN

[4] = target: T4, GST-MPP2 PDZ domain fusion protein; test: A/G assays
T4 construct: also called maguk p55 subfamily member 2 (DLG2); MMP2; not shown: glutathione S-transferase (GST) encoded by pGEX-3X
T4 chain: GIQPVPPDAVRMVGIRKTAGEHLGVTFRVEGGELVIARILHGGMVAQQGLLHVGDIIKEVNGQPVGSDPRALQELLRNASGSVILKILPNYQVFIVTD

[5] = target: T5, GST-DVL1 PDZ domain fusion protein (human); test: A/G assays
T5 construct: also called human dishevelled segment polarity protein homolog; not shown: glutathione S-transferase (GST) encoded by pGEX-3X
T5 chain: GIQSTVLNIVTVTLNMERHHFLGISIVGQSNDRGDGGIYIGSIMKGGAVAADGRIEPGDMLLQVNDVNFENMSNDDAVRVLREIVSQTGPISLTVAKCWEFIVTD

[6] = target: T6, GST-MINT3 PDZ domain fusion protein (human); test: A/G assays
T6 construct: also called human MINT3; not shown: glutathione S-transferase (GST) encoded by pGEX-3X
T6 chain: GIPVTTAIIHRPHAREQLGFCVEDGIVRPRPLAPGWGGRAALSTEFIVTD

[7] = target: T7, GST-TAX2 PDZ domain fusion protein (human, UniProt O14908 129-216); test: A/G assays
T7 construct: not shown: glutathione S-transferase (GST) encoded by pGEX-3X
T7 chain: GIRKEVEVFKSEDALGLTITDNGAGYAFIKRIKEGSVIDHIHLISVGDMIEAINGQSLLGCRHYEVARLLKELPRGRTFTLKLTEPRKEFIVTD

[8] = target: T4, GST-MPP2 PDZ domain fusion protein; test: G assay
[9] = target: T8, GST-NOS1 PDZ domain fusion protein (human, UniProt P29475 11-101); test: A/G assays
T8 construct: also called human neuronal nitric oxide synthase; not shown: glutathione S-transferase (GST) encoded by pGEX-3X

[10] = target: T9, GST-KIAA0316 PDZ domain fusion protein (Homo sapiens (Human), UniProt Q14CM0 72-159); test: A/G assays
T9 construct: also called K316; not shown: glutathione S-transferase (GST) encoded by pGEX-3X

[11] = target: T1, GST-NeDLG PDZ domains 1-2 fusion protein; test: A/G assays
[12] = target: T10, GST-TAX33 PDZ domain fusion protein (Homo sapiens (Human), UniProt O14910 103-194); test: A/G assays
T10 construct: not shown: glutathione S-transferase (GST) encoded by pGEX-3X
T10 sequence: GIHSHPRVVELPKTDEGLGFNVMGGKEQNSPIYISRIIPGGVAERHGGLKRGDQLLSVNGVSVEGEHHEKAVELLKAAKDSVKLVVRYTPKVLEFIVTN

[13] = target: T2, GST-SYN1a (alpha1-syntrophin) PDZ …; test: A/G assays
[14] = target: T5, GST-DVL1 PDZ domain fusion protein; test: A assay
[15] = target: T1, GST-NeDLG PDZ domains 1-2 fusion protein; test: A and G assays
[16] = target: T11, GST-prIL16 PDZ domains 1-2 fusion protein (Homo sapiens (Human), UniProt Q14005 1110-1325); test: G assay
T11 construct: also called putative interleukin 16 precursor; not shown: glutathione S-transferase (GST) encoded by pGEX-3X
T11 sequence: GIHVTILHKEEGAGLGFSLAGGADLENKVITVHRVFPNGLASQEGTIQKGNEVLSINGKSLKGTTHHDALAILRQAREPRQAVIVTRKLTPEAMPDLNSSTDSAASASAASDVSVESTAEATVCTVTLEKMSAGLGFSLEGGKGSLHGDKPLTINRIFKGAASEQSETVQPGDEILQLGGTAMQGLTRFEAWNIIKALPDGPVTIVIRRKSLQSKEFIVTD

[17] = target: T12, GST-MPP1 PDZ domain fusion protein (Homo sapiens (Human), UniProt Q00013 67-152); test: G assay
T12 construct: also called 55 Kd erythrocyte membrane protein; not shown: glutathione S-transferase (GST) encoded by pGEX-3X
T12 sequence: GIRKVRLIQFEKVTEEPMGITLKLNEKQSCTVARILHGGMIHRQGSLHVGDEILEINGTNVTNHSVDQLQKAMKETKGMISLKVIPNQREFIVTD

[18] = target: T12, GST-MPP1 PDZ domain fusion protein; test: A/G assays
[19] = target: T4, GST-MPP2 PDZ domain fusion protein; test: A assay
[20] = target: T13, GST-CASK PDZ domain fusion protein (mouse, UniProt O14936 485-575 (human entry)); test: A/G assays
T13 sequence: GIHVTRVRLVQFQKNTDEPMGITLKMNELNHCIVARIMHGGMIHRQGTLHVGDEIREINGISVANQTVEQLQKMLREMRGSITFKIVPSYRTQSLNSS

[21] = target: T14, GST-41.8 kD (hypothetical 41.8 kD protein) PDZ domain fusion protein (Mus musculus (Mouse), UniProt Q9EQZ7 682-763); test: A assay
T14 construct: not shown: glutathione S-transferase (GST) encoded by pGEX-3X
T14 sequence: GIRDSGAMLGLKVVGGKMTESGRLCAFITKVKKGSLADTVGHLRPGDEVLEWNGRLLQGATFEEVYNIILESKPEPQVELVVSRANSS

[22] = target: T1, GST-NeDLG PDZ domains 1-2 fusion protein; test: G assay titration of biotinylated peptide on immobilized GST-PDZ, saturation fit (apparent affinity)
Text: FIGS. 2A and 2B show the Apparent Affinity Determination for PDZ-Ligand Interactions. […] The binding to GST alone (<0.2 OD units) was subtracted from the binding to the fusion proteins to obtain the signal at each peptide concentration.

[23] = target: T12, GST-MPP1 PDZ domain fusion protein; test: A assay
[24] = target: T1, GST-NeDLG PDZ domains 1-2 fusion protein; test: A assay

T8 sequence (P29475 other isoform, or with tags, fused parts or gaps): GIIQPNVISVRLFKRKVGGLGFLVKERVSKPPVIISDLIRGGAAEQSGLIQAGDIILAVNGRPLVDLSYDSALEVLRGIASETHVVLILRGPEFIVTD
T9 sequence (Q14CM0 other isoform, or with tags, fused parts or gaps): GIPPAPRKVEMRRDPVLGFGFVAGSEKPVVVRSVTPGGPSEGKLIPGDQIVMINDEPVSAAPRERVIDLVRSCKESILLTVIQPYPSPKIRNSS

B1: DOCK2 C-terminal peptide AA40L (peptide)
peptide: Biotin-LASKSAEEGKQIPDSLSTDL
binding result [1]: binds | binding result [2]: binds | binding result [3]: no binding | binding result [4]: no binding | binding result [5]: no binding | binding result [6]: no binding | binding result [7]: no binding

B2: CD98 (2F4) C-terminal peptide AA15L (peptide)
peptide: Biotin-ERLKLEPHEGLLLRFPYAA
binding result [8]: binds | binding result [3]: no binding | binding result [9]: no binding | binding result [10]: no binding | binding result [5]: no binding | binding result [6]: no binding | binding result [7]: no binding | binding result [11]: no binding | binding result [12]: no binding | binding result [13]: no binding

B3: KV1.3 C-terminal peptide AA33L (peptide)
peptide: Biotin-TTNNNPNSAVNIKKIFTDV
binding result [14]: binds | binding result [3]: no binding | binding result [4]: no binding | binding result [6]: no binding | binding result [7]: no binding | binding result [13]: no binding | binding result [15]: binds

B4: CD44 (long form) C-terminal peptide AA9L (peptide)
peptide: Biotin-QFMTADETRNLQNVDMKIGV
binding result [16]: binds | binding result [17]: binds | binding result [3]: no binding | binding result [4]: no binding | binding result [5]: no binding | binding result [6]: no binding | binding result [7]: no binding | binding result [11]: no binding | binding result [13]: no binding

B5: Glycophorin C C-terminal peptide AA37L (peptide)
peptide: Biotin-QGDPALQDAGDSSRKEYFI
notes: also called GC
binding result [18]: no binding | binding result [19]: binds | binding result [1]: binds | binding result [3]: no binding | binding result [5]: no binding | binding result [6]: no binding | binding result [7]: no binding | binding result [13]: no binding

B6: CD138 (syndecan) C-terminal peptide AA18L (peptide)
peptide: Biotin-PKQANGGAYQKPTKQEEFYA
binding result [20]: no binding | binding result [3]: no binding | binding result [4]: no binding | binding result [5]: no binding | binding result [6]: no binding | binding result [7]: no binding | binding result [11]: no binding | binding result [13]: no binding

B7: CLASP-2 C-terminal peptide AA2L (peptide)
peptide: Biotin-ISGTPTSTMVHGMTSSSSVV
binding result [21]: binds | binding result [3]: no binding | binding result [4]: no binding | binding result [5]: no binding | binding result [6]: no binding | binding result [7]: no binding | binding result [13]: no binding | Kd [22]: 7.5 µM

B8: DNAM-1 C-terminal peptide AA22L (peptide)
peptide: Biotin-TREDIYVNYPTFSRRPKTRV
binding result [23]: binds | binding result [24]: binds | binding result [8]: binds | binding result [3]: no binding | binding result [9]: no binding | binding result [5]: no binding | binding result [6]: no binding | binding result [7]: no binding | binding result [13]: no binding
